Residue numbers refer to the chain shown, from its start.

This is an account of results in US20250382602.

Data set [1] addresses T1, Dda 1993 K177D K177D (Enterobacteria phage T4) (UniProt P32270).
T1 sequence: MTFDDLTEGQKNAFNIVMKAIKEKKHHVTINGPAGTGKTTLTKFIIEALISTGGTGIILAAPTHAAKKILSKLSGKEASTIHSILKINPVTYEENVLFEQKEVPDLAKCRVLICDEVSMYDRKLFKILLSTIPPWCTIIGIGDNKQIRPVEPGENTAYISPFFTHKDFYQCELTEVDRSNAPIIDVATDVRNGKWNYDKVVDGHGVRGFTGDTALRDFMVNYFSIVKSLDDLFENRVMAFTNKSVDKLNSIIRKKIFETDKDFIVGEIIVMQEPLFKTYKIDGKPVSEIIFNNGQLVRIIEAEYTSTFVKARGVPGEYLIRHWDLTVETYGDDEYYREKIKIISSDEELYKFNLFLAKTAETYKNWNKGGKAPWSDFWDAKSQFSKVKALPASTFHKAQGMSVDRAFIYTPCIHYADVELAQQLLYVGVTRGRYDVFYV
As to conditions: nanopore translocation; control is an unspecified Dda variant, background mutations not given.

Data set [2] addresses T2, Dda 1993 K177G K177G (Enterobacteria phage T4) (UniProt P32270).
T2 sequence: T1 sequence with D177G
The settings on record: nanopore translocation; background mutations not given.

Data set [3] deals with T3, Dda 1993 K177I K177I (Enterobacteria phage T4) (UniProt P32270).
T3 sequence: T1 sequence with D177I
The settings on record: nanopore translocation; background mutations not given.

The target in data set [4] is T4, Dda 1993 K177N K177N (Enterobacteria phage T4) (UniProt P32270).
T4 sequence: T1 sequence with D177N
As to conditions: nanopore translocation; background mutations not given.

Data set [5] concerns the target T5, Dda 1993 K177T K177T (Enterobacteria phage T4) (UniProt P32270).
T5 sequence: T1 sequence with D177T
The settings on record: nanopore translocation; background mutations not given.

Data set [6] concerns the target T6, Dda 1993 K177V K177V (Enterobacteria phage T4) (UniProt P32270).
T6 sequence: T1 sequence with D177V
As to conditions: nanopore translocation; background mutations not given.

As to “barcoded 3.6 kb DNA analyte ligated to sequencing Y adaptor”, the activity (bps speed delta vs control) in data set [1] was 3.07; in data set [2], -27.6; in data set [3], 43; in data set [4], 2.4; in data set [5] it was 22.6; in data set [6] it was -16.
